Literature values, collected in paper PMC8410215.

Biological target: Glu66 (UniProt position 148, FTKKMEENAKK)
Conditions: folded protein with Glu66 buried in the interior; water molecules penetrate to form a small channel around the residue

Question: With “Staphylococcal nuclease V66E variant (Staphylococcus aureus; V66E)” as the substance, how does the pKa read?
Answer: Its pKa is 8.8.
